Laboratory results as given in the Human Domainome abundance scans (Beltran et al. 2025).
± gives the uncertainty stated by the source.

B1: REST corepressor 3, residues 87 to 134; numbered along this chain, Q9P2K3 (parent)
chain: DEWTVEDKVLFEQAFSFHGKSFHRIQQMLPDKTIASLVKYYYSWKKTR

Variants of: B1
Assay: abundance fitness (aPCA) (normalised: wild type 0, dead -1); higher = more abundant; growth selection in yeast, the domain comes from the species named
Details: Homo sapiens

| Variant | abundance fitness |
| --- | --- |
| DEWTVEDKMLFEQAFSFHGKSFHRIQQMLPDKTIASLVKYYYSWKKTR [V9M] | -0.592 ± 0.36 |
| DEWTVEDKVLFEQAKSFHGKSFHRIQQMLPDKTIASLVKYYYSWKKTR [F15K] | -0.585 ± 0.32 |
| DEWTVEDKVLFEQAPSFHGKSFHRIQQMLPDKTIASLVKYYYSWKKTR [F15P] | -0.881 ± 0.26 |
| DEWTVEDKVLFEQAWSFHGKSFHRIQQMLPDKTIASLVKYYYSWKKTR [F15W] | -0.637 ± 0.34 |
| DEWTVEDKVLFEQATSFHGKSFHRIQQMLPDKTIASLVKYYYSWKKTR [F15T] | -0.604 ± 0.45 |
| DEWTVEDKVLFEQAGSFHGKSFHRIQQMLPDKTIASLVKYYYSWKKTR [F15G] | -0.731 ± 0.18 |
| DEWTVEDKVLFEQALSFHGKSFHRIQQMLPDKTIASLVKYYYSWKKTR [F15L] | -0.658 ± 0.25 |
| DEWTVEDKVLFEQACSFHGKSFHRIQQMLPDKTIASLVKYYYSWKKTR [F15C] | 0.29 ± 0.27 |
| DEWTVEDKVLFEQARSFHGKSFHRIQQMLPDKTIASLVKYYYSWKKTR [F15R] | -0.675 ± 0.2 |
| DEWTVEDKVLFEQAVSFHGKSFHRIQQMLPDKTIASLVKYYYSWKKTR [F15V] | -0.392 ± 0.12 |
| DEWTVEDKVLFEQASSFHGKSFHRIQQMLPDKTIASLVKYYYSWKKTR [F15S] | -0.632 ± 0.25 |
| DEWTVEDKVRFEQAFSFHGKSFHRIQQMLPDKTIASLVKYYYSWKKTR [L10R] | -0.213 ± 0.12 |
| DEWTVEDKVTFEQAFSFHGKSFHRIQQMLPDKTIASLVKYYYSWKKTR [L10T] | -0.723 ± 0.44 |
| DEWTVEDKVIFEQAFSFHGKSFHRIQQMLPDKTIASLVKYYYSWKKTR [L10I] | -0.117 ± 0.39 |
| DEWTVEDKVAFEQAFSFHGKSFHRIQQMLPDKTIASLVKYYYSWKKTR [L10A] | -0.317 ± 0.14 |
| DEWTVEDKVKFEQAFSFHGKSFHRIQQMLPDKTIASLVKYYYSWKKTR [L10K] | 0.546 ± 0.15 |
| DEWTVEDKVMFEQAFSFHGKSFHRIQQMLPDKTIASLVKYYYSWKKTR [L10M] | 0.745 ± 0.12 |
| DEWTVEDKVVFEQAFSFHGKSFHRIQQMLPDKTIASLVKYYYSWKKTR [L10V] | -0.051 ± 0.087 |
| DEWTVEDKVSFEQAFSFHGKSFHRIQQMLPDKTIASLVKYYYSWKKTR [L10S] | -0.763 ± 0.14 |
| DEWTVEDKVLFEQAFKFHGKSFHRIQQMLPDKTIASLVKYYYSWKKTR [S16K] | -0.22 ± 0.26 |
| DEWTVEDKVLFEQAFAFHGKSFHRIQQMLPDKTIASLVKYYYSWKKTR [S16A] | -0.077 ± 0.12 |
| DEWTVEDKVLFEQAFEFHGKSFHRIQQMLPDKTIASLVKYYYSWKKTR [S16E] | 0.339 ± 0.13 |
| DEWTVEDKVLFEQAFPFHGKSFHRIQQMLPDKTIASLVKYYYSWKKTR [S16P] | -0.579 ± 0.39 |
| DEWTVEDKVLFEQAFIFHGKSFHRIQQMLPDKTIASLVKYYYSWKKTR [S16I] | -0.554 ± 0.48 |
| DEWTVEDKVLFEQAFGFHGKSFHRIQQMLPDKTIASLVKYYYSWKKTR [S16G] | -0.081 ± 0.1 |
| DEWTVEDKVLFEQAFMFHGKSFHRIQQMLPDKTIASLVKYYYSWKKTR [S16M] | -0.167 ± 0.26 |
| DEWTVEDKVLFEQAFDFHGKSFHRIQQMLPDKTIASLVKYYYSWKKTR [S16D] | 0.149 ± 0.12 |

| Variant | abundance fitness |
| --- | --- |
| DEWTVEDKVLFEQAFLFHGKSFHRIQQMLPDKTIASLVKYYYSWKKTR [S16L] | -0.257 ± 0.15 |
| DEWTVEDKVLFEQAFCFHGKSFHRIQQMLPDKTIASLVKYYYSWKKTR [S16C] | -0.607 ± 0.25 |
| DEWTVEDKVLFEWAFSFHGKSFHRIQQMLPDKTIASLVKYYYSWKKTR [Q13W] | -0.742 ± 0.23 |
| DEWTVEDKVLFEFAFSFHGKSFHRIQQMLPDKTIASLVKYYYSWKKTR [Q13F] | -0.614 ± 0.22 |
| DEWTVEDKVLFEDAFSFHGKSFHRIQQMLPDKTIASLVKYYYSWKKTR [Q13D] | -0.644 ± 0.46 |
| DEWTVEDKVLFERAFSFHGKSFHRIQQMLPDKTIASLVKYYYSWKKTR [Q13R] | -0.46 ± 0.16 |
| DEWTVEDKVLFEKAFSFHGKSFHRIQQMLPDKTIASLVKYYYSWKKTR [Q13K] | -0.458 ± 0.26 |
| DEWTVEDKVLFEEAFSFHGKSFHRIQQMLPDKTIASLVKYYYSWKKTR [Q13E] | -0.288 ± 0.2 |
| DEWTVEDKVLFEMAFSFHGKSFHRIQQMLPDKTIASLVKYYYSWKKTR [Q13M] | -0.101 ± 0.29 |
| DEWTVEDKVLFEAAFSFHGKSFHRIQQMLPDKTIASLVKYYYSWKKTR [Q13A] | -0.389 ± 0.18 |
| DEWTVEDKVLFESAFSFHGKSFHRIQQMLPDKTIASLVKYYYSWKKTR [Q13S] | -0.584 ± 0.21 |
| DEWTVEDKVLFEHAFSFHGKSFHRIQQMLPDKTIASLVKYYYSWKKTR [Q13H] | -0.234 ± 0.4 |
| DEWTVEDKVLFEGAFSFHGKSFHRIQQMLPDKTIASLVKYYYSWKKTR [Q13G] | -0.948 ± 0.23 |
| DEWTVEDKVLFELAFSFHGKSFHRIQQMLPDKTIASLVKYYYSWKKTR [Q13L] | -0.679 ± 0.18 |
| DEWTVEDKVLFEIAFSFHGKSFHRIQQMLPDKTIASLVKYYYSWKKTR [Q13I] | -0.56 ± 0.23 |
| DEWTVEDKVLFECAFSFHGKSFHRIQQMLPDKTIASLVKYYYSWKKTR [Q13C] | -1.02 ± 0.46 |
| DEWTVEDKVLFAQAFSFHGKSFHRIQQMLPDKTIASLVKYYYSWKKTR [E12A] | -0.582 ± 0.29 |
| DEWTVEDKVLFIQAFSFHGKSFHRIQQMLPDKTIASLVKYYYSWKKTR [E12I] | -0.24 ± 0.29 |
| DEWTVEDKVLFRQAFSFHGKSFHRIQQMLPDKTIASLVKYYYSWKKTR [E12R] | -1.01 ± 0.48 |
| DEWTVEDKVLFSQAFSFHGKSFHRIQQMLPDKTIASLVKYYYSWKKTR [E12S] | -0.822 ± 0.33 |
| DEWTVEDKVLFDQAFSFHGKSFHRIQQMLPDKTIASLVKYYYSWKKTR [E12D] | -0.07 ± 0.23 |
| DEWTVEDKVLFKQAFSFHGKSFHRIQQMLPDKTIASLVKYYYSWKKTR [E12K] | -0.643 ± 0.34 |
| DEWTVEDKVLFTQAFSFHGKSFHRIQQMLPDKTIASLVKYYYSWKKTR [E12T] | -0.252 ± 0.27 |
| DEWTVEDKVLFLQAFSFHGKSFHRIQQMLPDKTIASLVKYYYSWKKTR [E12L] | -0.476 ± 0.39 |
| DEWTVEDKVLFQQAFSFHGKSFHRIQQMLPDKTIASLVKYYYSWKKTR [E12Q] | -0.528 ± 0.46 |
| DEWTVEDKVLFVQAFSFHGKSFHRIQQMLPDKTIASLVKYYYSWKKTR [E12V] | -0.801 ± 0.22 |
| DEWTVEDKVLFGQAFSFHGKSFHRIQQMLPDKTIASLVKYYYSWKKTR [E12G] | -0.708 ± 0.31 |
